In paper PMC7738837, “Synthesis and evaluation of ^68Ga-labeled dimeric cNGR peptide for PET imaging of CD13 expression with ovarian cancer xenograft” (Journal of Cancer, 2021):
Like-named read-outs stand apart in the source and are kept apart here. Positions of bridges follow the written chain, without caps; N, C: chain ends. Non-standard residues stand in square brackets, D forms with d. Residues, ends and D or L forms follow the SMILES beside them. Chains are numbered I, II in the order given. *: point of attachment. DOTA = O=C(O)CN1CCN(CC(=O)O)CCN(CC(=O)*)CCN(CC(=O)O)CC1; PEG4 = NCCOCCOCCOCCOCCC(=O)O

Legend:
[1] = MicroPET imaging and blocking, ES2 tumor-bearing nude mice; settings: female, BALB/c nude, mouse, in vivo, iv, total radioactivity
Method: (§1) The human OVCA ES2 and SKOV3 cells were obtained from Nanjing Keygen Biotech Co., Ltd. (Nanjing, China). ES2 cells were maintained as monolayer cultures in McCoy's medium 5A supplemented with 10% fetal bovine serum (FBS), and SKOV3 cells were cultured in RPMI-1640 medium supplemented with 10% FBS. Both cell lines were incubated at 37°C in a humidified atmosphere containing 5% CO2. Cells in log phase were harvested by trypsinization, washed with PBS twice and adjusted to 5×10^7/mL in PBS. A volume of 0.1 mL single-cell suspension was subcutaneously injected into the front flank of each female […] nude mouse (~4-6 weeks old, body weight of 18-25 g; Slac Laboratory Animal, Shanghai, China). Animal models were used for PET imaging experiments when xenografts grew to 500-1,000 mm^3. All animal-related studies were approved by the Institutional Animal Care and Use Committee of Soochow University.
(§2) Two groups of female Balb/c nude mice (n=6/group) bearing ES2 tumors were used to conduct static microPET imaging with an Inveon microPET scanner (Siemens Medical Solutions, Erlangen, Germany). The first group was injected with 7.4 MBq ^68Ga-DOTA-c(NGR)2 via tail vein under anesthesia with 1%-2% isoflurane, and a series of static image data, 10 min for each time point, were collected at 30 min, 1, 1.5, and 2 h post injection. For blocking studies, the second group of mice was injected with 100 μg unlabeled peptide in 100 μL saline via tail vein, immediately followed by administration of ^68Ga-DOTA-c(NGR)2, and then images were acquired at 30 min, 1, 1.5 and 2 h post-injection, each for 10 min. The obtained images were processed using Siemens Inveon Research Workplace 4.0 (IRW 4.0) and reconstructed using three-dimensional ordered-subset expectation maximization. Regions of interest (ROIs) were drawn over the tumor (T) and muscle of the contralateral forelimb, and the latter served as the background (B). Moreover, %ID/g of tumors and the T/B ratio were determined. The same studies were repeated in female Balb/c nude mice bearing SKOV3 tumors without the blocking experiments.

ES2 cells = assay: In vitro cell binding/uptake assay, ES2 cells; format: cell-based, human; settings: 37 KBq per well, 37°C
[2] = In vitro stability in saline/PBS at room temperature (radiochemical purity); format: physicochemical; settings: ~3.7 MBq tracer in saline (method: PBS), 3 h of incubation, radio-HPLC
in vivo [3] = settings: ICR, mouse, iv, 3.7 MBq, total radioactivity
SKOV3 cells = assay: In vitro cell binding/uptake assay, SKOV3 cells; format: cell-based, human; settings: 37 KBq per well, 1×10^6 cells/well, 37°C, time points 5 min to 2 h, gamma counter, mean ± SD
in vivo [4] = settings: female, BALB/c nude, mouse, iv, 7.4 MBq, total radioactivity
Method: as §1, §2

## N=C(N)NCCC[C@@H]1NC(=O)CNC(=O)[C@H](CC(N)=O)NC(=O)[C@@H](NC(=O)CCOCCOCCOCCOCCNC(=O)CC[C@H](NC(=O)CCOCCOCCOCCOCCNC(=O)CN2CCN(CC(=O)O)CCN(CC(=O)O)CCN(CC(=O)O)CC2)C(=O)NCCOCCOCCOCCOCCC(=O)N[C@H]2CSSC[C@@H](C(=O)N[C@@H](Cc3ccc(O)cc3)C(=O)O)NC(=O)[C@H](CCCNC(=N)N)NC(=O)CNC(=O)[C@H](CC(N)=O)NC2=O)CSSC[C@@H](C(=O)N[C@@H](Cc2ccc(O)cc2)C(=O)O)NC1=O [^68Ga-DOTA-c(NGR)2, metal not drawn] (I: {DOTA-PEG4}-E[PEG4]CNGRCY-OH / II: [PEG4]CNGRCY-OH; amide I:1-II:N; disulfide I:3-I:7, II:2-II:6)
[1]; 7.4 MBq
  tissue uptake at 1 h: 0.62 ± 0.09 %ID/g
  tissue uptake at 1.5 h: 0.53 ± 0.08 %ID/g
[1]
  tissue to tissue ratio at 1 h: 10.3 ± 0.26
  tissue to tissue ratio at 1.5 h: 8.04 ± 1.75
[1]; microPET, 100 μg unlabeled peptide i.v. immediately before tracer, 1 h post-injection, n=6, mean ± SD, read-out: uptake in ES2 tumors in the blocking experiment
  tissue uptake at 1 h: 0.16 ± 0.03 %ID/g
[1]; microPET, 100 μg unlabeled peptide i.v. immediately before tracer, 1.5 h post-injection, n=6, mean ± SD, read-out: uptake in ES2 tumors in the blocking experiment
  tissue uptake at 1.5 h: 0.14 ± 0.02 %ID/g
ES2 cells; 1×10^6 cells/well, after 2 h of incubation, gamma counter, mean ± SD
  highest binding to ES2 cells: 3.00% ± 0.59
ES2 cells
  time to almost saturated binding to ES2 cells: ≤ 30 min
[2]
  radiochemical purity after incubation in saline: > 96%
In vivo [3]; blood
  tissue uptake at 5 min: 7.44 ± 1.64 %ID/g
  tissue uptake at 1 h: 0.31 ± 0.05 %ID/g
In vivo [3]; kidney
  tissue uptake at 5 min: 16.7 ± 5.8 %ID/g
SKOV3 cells
  highest binding to SKOV3 cells: 1.79% ± 0.34
In vivo [4]
  tissue to tissue ratio at 1 h: 3.99 ± 0.18
  tissue to tissue ratio at 1.5 h: 4.24 ± 0.73
  tissue uptake at 1 h: 0.32 ± 0.03 %ID/g
  tissue uptake at 1.5 h: 0.24 ± 0.05 %ID/g
Normal ICR mice; 30 min post-injection versus 5 min
  decrease of kidney uptake from peak: more than 50%
Normal ICR mice; 120 min post-injection versus 5 min
  decrease of kidney uptake from peak: > 85%
